We go through five molecules from patent publication US20230183319A1 (published 2023).

T1: activin B (UniProt P09529 293-407)
T1 chain: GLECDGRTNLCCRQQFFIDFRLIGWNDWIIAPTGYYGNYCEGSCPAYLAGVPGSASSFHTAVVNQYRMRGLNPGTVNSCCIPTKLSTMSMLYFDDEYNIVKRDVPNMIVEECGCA

T2: activin A (UniProt P08476 311-426)
T2 chain: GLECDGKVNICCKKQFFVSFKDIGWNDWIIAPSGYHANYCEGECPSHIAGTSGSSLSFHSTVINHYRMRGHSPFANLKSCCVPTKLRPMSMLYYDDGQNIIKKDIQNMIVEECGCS

T3: BMP6 (UniProt P22004 382-513)
T3 chain: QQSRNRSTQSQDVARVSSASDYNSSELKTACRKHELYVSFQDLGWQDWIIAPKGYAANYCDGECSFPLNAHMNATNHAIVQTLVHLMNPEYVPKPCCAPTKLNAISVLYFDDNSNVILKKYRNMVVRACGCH

B1: GDF11 (ligand)
chain: NLGLDCDEHSSESRCCRYPLTVDFEAFGWDWIIAPKRYKANYCSGQCEYMFMQKYPHTHLVQQANPRGSAGPCCTPTKMSPINMLYFNDKQQIIYGKIPGMVVDRCGCS
B2: BMP9 (ligand)
chain: SAGAGSHCQKTSLRVNFEDIGWDSWIIAPKEYEAYECKGGCFFPLADDVTPTKHAIVQTLVHLKFPTKVGKACCVPTKLSPISVLYKDDMGVPTLKYHYEGMSVAECGCR
B3: ActRIIB-G1Fc (SEQ ID NO: 519) (Fc fusion)
chain: GRGEAETRECIYYNANWELERTNQSGLERCEGEQDKRLHCYASWRNSSGTIELVKKGCWLDDFNCYDRQECVATEENPQVYFCCCEGNFCNERFTHLPEAGGPEVTYEPPPTAPTGGGTHTCPPCPAPELLGGPSVFLFPPKPKDTLMISRTPEVTCVVVDVSHEDPEVKFNWYVDGVEVHNAKTKPREEQYNSTYRVVSVLTVLHQDWLNGKEYKCKVSNKALPVPIEKTISKAKGQPREPQVYTLPPSREEMTKNQVSLTCLVKGFYPSDIAVEWESNGQPENNYKTTPPVLDSDGSFFLYSKLTVDKSRWQQGNVFSCSVMHEALHNHYTQKSLSLSPGK
B4: Activin A (ligand)
chain: T2 chain
B5: BMP10 (ligand)
chain: NAKGNYCKRTPLYIDFKEIGWDSWIIAPPGYEAYECRGVCNYPLAEHLTPTKHAIIQALVHLKNSQKASKACCVPTKLEPISILYLDKGVVTYKFKYEGMAVSECGCR

One experiment deals with L79K / F82K. Briefly: SPR; 37C.
The target in another experiment is K55A / F82I. Description: SPR; 37C.
Another experiment deals with K74A. Briefly: SPR; 37C.
In another experiment the target is L38Q. Briefly: SPR; 25C.
Another experiment addresses Q98L. Briefly: SPR; 25C.
The target of another experiment is Q98I. Description: SPR; 25C.
The target of another experiment is N35Q. Briefly: SPR; 25C.
The target of the next experiment is Q98K. Description: SPR; 25C.
The target of another experiment is Q98R. Briefly: SPR; 25C.
A further experiment addresses N35F. Briefly: SPR; 25C.
The next experiment has as its target L38R. Description: SPR; 25C.
In another experiment the target is Q98V. Briefly: SPR; 25C.
The target in the next experiment is Q98A. Briefly: SPR; 25C.
Another experiment has as its target L38D. Briefly: SPR; 25C.
For another experiment, the target named is T1, activin B. Description: SPR; 37C.
The target in the experiment “GDF11” is B1. Description: SPR; 37C.
For a further experiment, the target named is T2, activin A. Description: SPR; 37C.
The next experiment has as its target GDF8 (UniProt O14793 267-375). Description: SPR; 37C.
The target of the experiment “BMP10” is B5. Description: SPR; 37 C.
The target in the experiment “BMP9” is B2. Description: SPR; 37 C.
The target in a further experiment is T3, BMP6. Briefly: SPR; 37 C.

Sequence of GDF8 (O14793 267-375): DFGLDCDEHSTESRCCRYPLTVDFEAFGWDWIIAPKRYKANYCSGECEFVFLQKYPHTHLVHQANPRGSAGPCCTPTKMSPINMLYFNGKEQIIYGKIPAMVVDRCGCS

As for B1, the Kd with L79K / F82K stood at 1600 pM; with K55A / F82I, 90 pM; with K74A, 430 pM; in the experiment with L38Q it was 21 pM; in the experiment with Q98L it was 43 pM; in the experiment with Q98I, 49 pM. Besides, the Kd was determined as 20 pM with N35Q; 37 pM with Q98K; 20 pM in the experiment with Q98R; 17 pM with N35F; 7 pM in the experiment with L38R; 33 pM in the experiment with Q98V. Moreover, the figures for the equilibrium dissociation constant (Kd) with Q98A and with L38D were 37 pM and 30 pM, respectively.

For B2, the Kd in the experiment with K55A / F82I is 134 pM; with K74A it was 360 pM; in the experiment with L38Q it was 33 pM; with Q98L it was 71 pM; with Q98I, 59 pM; with Q98K it was 69 pM. For the same molecule, the Kd with Q98R came to 74 pM; in the experiment with L38R, 50 pM; in the experiment with Q98V, 47 pM; in the experiment with Q98A it was 43 pM; with L38D, 63 pM.

B3: the equilibrium dissociation constant (Kd) with activin B was 22.5 pM; in the experiment with GDF11, 4.91 pM; with activin A it was 13.5 pM; in the experiment with GDF8, 79.5 pM; in the experiment with BMP10 it was 8.41 pM; with BMP9, 83.1 pM. In the experiment with BMP6, this molecule returned a Kd of 431 pM.

As for B4, the equilibrium dissociation constant (Kd) was 640 pM in the experiment with L79K / F82K; 47 pM with K55A / F82I; 34 pM in the experiment with K74A; 200 pM with L38Q; 220 pM with Q98L; 157 pM with Q98I. The Kd with N35Q was 320 pM; with Q98K, 145 pM; with Q98R, 300 pM; with N35F, 290 pM; with L38R it was 230 pM; with Q98V it was 160 pM. Besides, the dissociation constant Kd with Q98A worked out at 155 pM; with L38D it was 230 pM.

As for B5, the Kd with L79K / F82K was found to be 68 pM; with K55A / F82I, 7 pM; with K74A, 33 pM; with L38Q, 89 pM; with Q98L, 65 pM; with Q98I, 210 pM. In addition, the equilibrium dissociation constant (Kd) in the experiment with N35Q worked out at 270 pM; in the experiment with Q98K, 68 pM; with Q98R, 320 pM; with N35F, 220 pM; with L38R it was 110 pM; in the experiment with Q98V, 48 pM. The results for the Kd with Q98A and in the experiment with L38D were 210 pM and 150 pM, respectively.
